Values quoted from earlier work in US20040115213A1, “Use of IL-2 receptor antibodies” (priority 2002, published 2004).

Tests used:
[1] = monkeys; Hakimi et al.
[2] = human patients
[3] = patients given amphotericin-B

Row | Compound | immunogenicity relative to mouse antibody [1] | immunogenicity (HAMA response) [2] | patients experiencing some degree of nephrotoxicity [3]
1 | humanized anti-Tac: humanized monoclonal antibody that binds to the p55 subunit of the human IL-2 receptor, described in U.S. Pat. No. 5,530,101 | reduced immunogenicity relative to mouse anti-Tac | (essentially) non-immunogenic | –
2 | CC1OC(O[C@H]2/C=C/C=C/C=C/C=C/C=C/C=C/C=C/[C@H](C)[C@@H](O)[C@@H](C)[C@H](C)OC(=O)C[C@H](O)C[C@H](O)CC[C@@H](O)[C@H](O)C[C@H](O)C[C@]3(O)C[C@H](O)C(C(=O)O)[C@H](C2)O3)C(O)C(N)C1O (stereo partly drawn) [amphotericin-B, [1R-(1 R *,3 S *, 5 R *, 6 R *,9 R *,11 R *,15 S *,16 R *,17 R *,18 S *, 19 E,21 E, 23 E,25 E, 27 E,29 E,31 E,33 R *,35 S *,36 R *,37 S *)]-33-[(3-Amino-3,6-dideoxy-(beta)-D-mannopyranosyl)oxy]-1,3,5,6,9,11,17,37-octahydroxy-15,16,18-trimethyl-13-oxo-14,39-dioxabi-cyclo[33.3.1]nonatriaconta-19,21,23,25,27,29,31-heptaene-36-carboxylic acid] | – | – | Over 80%
